Measured values taken from paper PMC9256704.

Molecular target: PKM2 (M2 isoform of pyruvate kinase), endogenous (human (endogenous in A549 and in patients' lung cancer tissues)) (UniProt P14618)
Experiment: native gel or EMSA; native PAGE of cytoplasm and nucleus of cells; TRIB2 overexpression or siRNA-TRIB2

Sequence of PKM2 (M2 isoform of pyruvate kinase), endogenous, P14618 1-531 (natural protein; other documents disagree on this pair) (P14618 whole entry, canonical isoform): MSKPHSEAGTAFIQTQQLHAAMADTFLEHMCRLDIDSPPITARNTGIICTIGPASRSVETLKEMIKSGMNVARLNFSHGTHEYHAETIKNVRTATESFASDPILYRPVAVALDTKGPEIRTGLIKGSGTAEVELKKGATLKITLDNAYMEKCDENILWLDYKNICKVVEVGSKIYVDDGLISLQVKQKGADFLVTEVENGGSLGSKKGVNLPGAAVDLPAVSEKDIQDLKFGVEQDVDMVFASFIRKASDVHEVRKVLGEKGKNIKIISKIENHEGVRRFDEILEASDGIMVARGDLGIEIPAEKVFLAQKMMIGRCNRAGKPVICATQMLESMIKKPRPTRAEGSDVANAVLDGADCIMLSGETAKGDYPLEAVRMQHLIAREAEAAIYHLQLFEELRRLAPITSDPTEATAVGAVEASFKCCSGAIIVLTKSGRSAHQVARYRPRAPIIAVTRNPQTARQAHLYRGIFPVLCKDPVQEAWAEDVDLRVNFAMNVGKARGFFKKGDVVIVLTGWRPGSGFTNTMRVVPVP

In the case of “PKM2 (M2 isoform of pyruvate kinase), endogenous, P14618 1-531 (natural protein; other documents disagree on this pair)”, the stoichiometry N is reported as 2.
